# Test results published in PMC12635182.
# Molecular target: aSyn-VC (alpha-synuclein fused in front of the C-terminal fragment of Venus) (UniProt P37840)
substance,measurement,value
VN-Sph1 K527A (from UniProt Q9Y6H5 1-919) (natural protein),"cells with fewer VN-Sph1 + aSyn-VC inclusions than with WT Sph1 (HEK 293, counted by microscopy)",40%
